# Source: IntAct's records for PubMed 24879834
# B1: TBC1 domain family member 1 (Homo sapiens), Q86TI0 (parent)
# chain: MEPITFTARKHLLSNEVSVDFGLQLVGSLPVHSLTTMPMLPWVVAEVRRLSRQSTRKEPVTKQVRLCVSPSGLRCEPEPGRSQQWDPLIYSSIFECKPQRVHKLIHNSHDPSYFACLIKEDAVHRQSICYVFKADDQTKVPEIISSIRQAGKIARQEELHCPSEFDDTFSKKFEVLFCGRVTVAHKKAPPALIDECIEKFNHVSGSRGSESPRPNPPHAAPTGSQEPVRRPMRKSFSQPGLRSLAFRKELQDGGLRSSGFFSSFEESDIENHLISGHNIVQPTDIEENRTMLFTIGQSEVYLISPDTKKIALEKNFKEISFCSQGIRHVDHFGFICRESSGGGGFHFVCYVFQCTNEALVDEIMMTLKQAFTVAAVQQTAKAPAQLCEGCPLQSLHKLCERIEGMNSSKTKLELQKHLTTLTNQEQATIFEEVQKLRPRNEQRENELIISFLRCLYEEKQKEHIHIGEMKQTSQMAAENIGSELPPSATRFRLDMLKNKAKRSLTESLESILSRGNKARGLQEHSISVDLDSSLSSTLSNTSKEPSVCEKEALPISESSFKLLGSSEDLSSDSESHLPEEPAPLSPQQAFRRRANTLSHFPIECQEPPQPARGSPGVSQRKLMRYHSVSTETPHERKDFESKANHLGDSGGTPVKTRRHSWRQQIFLRVATPQKACDSSSRYEDYSELGELPPRSPLEPVCEDGPFGPPPEEKKRTSRELRELWQKAILQQILLLRMEKENQKLQASENDLLNKRLKLDYEEITPCLKEVTTVWEKMLSTPGRSKIKFDMEKMHSAVGQGVPRHHRGEIWKFLAEQFHLKHQFPSKQQPKDVPYKELLKQLTSQQHAILIDLGRTFPTHPYFSAQLGAGQLSLYNILKAYSLLDQEVGYCQGLSFVAGILLLHMSEEEAFKMLKFLMFDMGLRKQYRPDMIILQIQMYQLSRLLHDYHRDLYNHLEEHEIGPSLYAAPWFLTMFASQFPLGFVARVFDMIFLQGTEVIFKVALSLLGSHKPLILQHENLETIVDFIKSTLPNLGLVQMEKTINQVFEMDIAKQLQAYEVEYHVLQEELIDSSPLSDNQRMDKLEKTNSSLRKQNLDLLEQLQVANGRIQSLEATIEKLLSSESKLKQAMLTLELERSALLQTVEELRRRSAEPSDREPECTQPEPTGD
# partner: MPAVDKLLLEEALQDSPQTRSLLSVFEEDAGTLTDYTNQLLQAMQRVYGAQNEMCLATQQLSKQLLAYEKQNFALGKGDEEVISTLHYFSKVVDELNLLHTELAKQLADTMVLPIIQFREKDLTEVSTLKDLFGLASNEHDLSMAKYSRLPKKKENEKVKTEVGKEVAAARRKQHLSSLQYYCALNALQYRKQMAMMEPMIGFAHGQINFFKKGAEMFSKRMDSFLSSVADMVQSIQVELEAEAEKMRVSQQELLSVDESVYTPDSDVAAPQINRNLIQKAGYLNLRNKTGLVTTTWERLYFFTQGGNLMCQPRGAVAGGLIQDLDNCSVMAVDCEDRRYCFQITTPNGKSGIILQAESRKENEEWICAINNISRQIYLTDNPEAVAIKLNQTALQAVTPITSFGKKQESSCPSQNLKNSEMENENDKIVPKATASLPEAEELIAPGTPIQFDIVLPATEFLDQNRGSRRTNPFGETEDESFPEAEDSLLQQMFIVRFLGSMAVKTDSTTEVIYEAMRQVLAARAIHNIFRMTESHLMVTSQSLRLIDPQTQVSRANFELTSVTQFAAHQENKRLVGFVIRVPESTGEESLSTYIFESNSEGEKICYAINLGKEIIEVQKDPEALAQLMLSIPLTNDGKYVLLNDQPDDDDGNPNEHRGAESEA
# Variants of: B1
# Settings: with dp13b_human APPL2, Q8NEU8
row,Variant,effect of a mutation on the interaction
1,S237A,with no effect
2,S235A,disrupting interaction strength
